Target: YxiD^CTD (C-terminal domain of YxiD, Pro428-Pro534), Bacillus subtilis 6633 (Bacillus subtilis 6633 (Bacillus subtilis subsp. spizizenii ATCC 6633))
Assay: ITC; 15 uM YxiD^CTD in the cell titrated with 150 uM YxxD in the syringe; 25°C; 20 mM HEPES pH 7.5, 150 mM NaCl; OneSite binding model

B1: YxxD immunity protein, Bacillus subtilis 6633 (natural protein)
chain: MSYNFIKSNKENDFYPVNQSEIEEVEKNLNLKLPSELVNFYLEVGYGFIKGSEFNTNRILDPYSVRDFRLRINDFEFYPDIEIYDEFENDKLIFFEGSESALMSIELNDNNKNPIYYYDIQIATSLTEFLRKIEENDQYYLDLLDDE
Kd: 9.4 nM | dH: -42.6 kJ/mol | stoichiometry N: 0.975 sites

Reference: article PMC12700104
